Results as given in the supplement of paper PMC10567573.

B1: ZNF263 (parent)
chain: KPYKCTLCGENFSHRSNLIRHQRI

Variants of: B1
Experiment: protein stability index of a GFP-peptide fusion (GPS, HEK-293T) (PSI 1-6); higher = more stable
Settings: c terminus: a fixed tail appended
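Note: lentivirally expressed fusions sorted by FACS into six bins by GFP to DsRed ratio, PSI derived from sequencing read proportions per bin multiplied by bin number.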

Protein stability index of substitutions, site by site:
H14: E 2.95, P 1.85, Q 1.9, Y 3.16, K 2.81, M 2.55, N 2.56, L 2.73, S 3.56, V 2.43, G 1.97, C 2.68, F 2.23, A 2.56, I 2.07, W 1.43, R 2.41, D 2.68, T 2.75
C8: V 2.47, K 3.61, W 1.88, P 2.45, F 2.11, E 2.48, S 4.1, A 2.34, H 2.1, L 2.44, M 1.83, I 2.58, R 1.73, D 2.62, Y 2.41, T 2.69, Q 2.74, N 2.89, G 2.45
Q22: G 1.86, A 2.49, F 2.35, T 2.54, C 2.44, N 2.61, E 1.66, M 3.43, H 3.09, R 3.17, I 2.72, V 2.29, S 2.54, K 2.14, Y 2.91, W 2.65, P 1.39, L 2.35, D 2.01
R20: A 2.43, G 2.37, S 1.8, I 1.81, K 2.67, P 1.7, Q 2.6, W 1.76, M 2.22, N 2.38, D 2.84, E 3.12, C 2.45, L 2.15, T 2.33, Y 1.68, V 1.99, F 2.58, H 1.76
L18: M 1.93, T 1.72, A 2.35, K 2.19, S 1.77, N 2.21, P 1.88, I 1.95, V 2.59, F 2.56, H 2.93, Y 2.38, R 2.81, W 2.19, Q 2.42, E 1.81, D 1.74, C 3.22, G 1.98
H21: Y 2.46, T 2.22, F 2.34, M 2.72, I 1.58, N 3.21, P 1.69, S 1.89, L 1.89, G 1.83, Q 1.14, A 2.13, R 1.78, C 2.6, D 2.29, K 2.04, E 2.58, W 3.53
L7: W 2.69, R 2.28, N 2.78, G 2.18, V 3.37, Y 3.25, I 3.06, Q 3.02, T 2.51, D 3.02, C 3.9, E 3.63, A 3.07, P 1.69, M 3.12, H 3.88, S 2.68, K 3.22, F 2.51
N11: Y 2.8, K 2.98, A 2.72, H 3.33, W 2.25, E 3.23, M 3.49, F 2.61, G 2.52, D 2.23, Q 2.62, T 3.59, S 2.8, P 1.8, L 2.69, C 3.11, V 2.83, I 3.18, R 3.03
I19: P 2.11, M 2.62, N 1.77, Y 2.3, Q 2.44, E 2.89, D 2.74, V 2.54, G 3.08, C 4.18, F 1.88, W 1.5, R 2.9, A 2.57, T 2.5, K 2.65, H 2.33, S 1.88, L 2.32
F12: M 2.01, E 1.93, A 1.97, Q 2.18, H 2.65, K 1.58, P 1.57, D 1.28, G 1.8, W 2.12, N 1.96, T 1.66, C 2.71, S 1.99, I 2.41, L 2.1, Y 1.44, R 1.54, V 3.52
S16: N 2.13, H 2.76, W 2.43, C 2.41, Y 2.91, G 1.94, K 3.28, E 2.53, V 1.87, L 2.88, I 2.41, T 1.65, M 2.26, R 3.92, P 1.77, D 2.74, Q 2.81, F 2.02, A 2.04
E10: N 2.24, I 2.35, D 2.25, H 2.71, F 2.36, M 2.67, R 2.97, V 2.56, T 2.06, P 2.09, S 2.61, A 2.82, C 1.94, L 1.88, W 2.35, G 3.09, Q 2.98, K 3.4, Y 1.69
N17: K 3.28, Q 2.9, E 3.31, C 2.47, G 3.16, Y 3.12, M 2.87, T 2.65, L 2.77, D 3.88, W 2.07, I 2.93, A 3.59, S 2.99, H 3.64, V 1.7, R 2.64, F 2.08, P 1.87
C5: Y 1.96
S13: H 2.38, V 2.39, K 2.38, G 2.59, E 2.52, R 3.45, P 2.45, T 2.13, A 2.87, Y 2.89, W 2.53, N 2.35, F 2.26, M 2.52, Q 2.84, C 2.4, D 2.12, L 2.32, I 2.67
G9: P 1.67, D 2.01, C 2.16, Q 2.79, L 1.16, W 1.62, K 2.05, N 2.36, R 2.5, F 2.43, E 2.29, Y 2.61, S 2.38, M 2.38, T 1.39, A 2.19, I 4, H 1.81, V 2.14
R23: D 2.73, M 2.88, A 2.57, I 2.48, E 2.67, G 2.49, F 1.66, C 4.48, K 3.08, L 2.82, H 3.28
R15: F 2.96, V 2.88, C 2.34, I 2.73, D 1.55, P 2.52, S 1.38, M 2.85, G 2.08, K 2.28, N 2.1, Y 2.45, Q 2.43, T 1.59, H 2.15, E 2.69, A 2.87, W 2.54, L 2.45
T6: L 2.21, C 2.1, A 2.43, R 2.96, G 2.67, H 3.1, N 2.6, K 2.69, S 3.17, Q 2.21, I 2.38, D 2.7, V 2.07, E 2.9, Y 1.98, M 2.08, P 2.42, F 2.61, W 2.53
